Reference: patent US20140072592A1
Ends that are not written are not given here.

Molecular target: anti-SPAPP monoclonal antibody CM61
Experiment: competition EIA: SPAPP in 83% human plasma competes with plate-coated SPAPP for 10 ng/ml CM61

B1: amyloid precursor protein signal peptide (SPAPP), …-COOH (peptide)
peptide: MLPGLALLLLAAWTARA-OH
With B1 the lowest antigen concentration detectable by competition was over 200 pg/mL.
